Legend:
Format in all cases: in vivo
db/db mice [1] = assay: Dose response of NT-4/5 on body weight and percentage change in body weight of db/db mice (Example 2, Tables 16, 17); design: body weight: unit not given here; conditions: for body weight / percentage change in body weight: db/db mice, 12 week, female, mean
Procedure: (§1) Db/db mice maintained as described in Example 1 were divided into five groups (groups 1-5). Group 1 (7 mice) were administered with vehicle (PBS). Group 2 (7 mice), group 3 (8 mice), group 4 (8 mice), group 5 (8 mice) were each administered with NT-4/5 at the doses of 2 mg/kg, 5 mg/kg, 10 mg/kg, and 20 mg/kg, respectively. Both the vehicle and NT-4/5 were administered to each group of the mice subcutaneously once daily for five days. One day before beginning the treatment (T0), blood samples were collected from the mice as described previously for the determination of baseline levels of serum biomarkers (glucose, triglyceride, and cholesterol). Similarly, at day 6 (T6), blood samples were collected for the determination of serum biomarker levels. The blood samples were treated in the same manner as described in Example 1.
From two days before the treatment (T-1) to day 6 (T6), individual food intakes of the mice were measured daily. Individual body weights were also measured daily from 6 days before the treatment (T-5) to day 7 (T7).

db/db mice [2] = assay: Dose response of NT-4/5 on food intake of db/db mice (Example 2)
Procedure: as §1
[…] Individual body weights were also measured daily from 6 days before the treatment (T-5) to day 7 (T7).

DIO mice = assay: Glucose, triglyceride and oral glucose tolerance in DIO mice (Example 5); conditions: 2 and 10 mg/kg
Procedure: Test animals: Mice with diet induced obesity (DIO) from Jackson Laboratory were used in this study. El-Haschimi, J. Clin. Invest. 105:1827-1832 (2000); Steppan, Nature 409:307-312 (2001). 23 male C57BL/6J mice were weaned at 4 weeks of age. Immediately after weaning they were put on about 58% high fat diet ([…], Research Diet) through out the study. The DIO mice at 13 weeks of age weighing in the range of 28-40 g were used in this study. Older mice at 22-24 weeks of age were also used.
Administration of NT-4/5: NT-4/5 used in this study was obtained from Genentech. The mice were divided into 3 groups of equivalent body weight and baseline blood glucose distribution (7-8 mice per group). Each group received from day 1 to day 5, from day 8 to day 12, from day 15 to 16 a daily subcutaneous dose of either vehicle, 2 mg/kg or 10 mg/kg of NT-4/5, respectively. Five days prior to the treatment started (day −5), a baseline blood samples were collected for measuring glucose and triglyceride. Subsequent to the treatment started (day 1), blood glucose and triglyceride were measured once a week. Body weight, food intake were monitored 5 days per week through out the entire study. From days 57-59, the DIO mice received a daily injection of NT-4/5 at 2 or 10 mg/kg respectively. They were fasted overnight (for 16 hours) before fasting glucose levels were measured and the oral glucose tolerance test was conducted with a load of 2 grams of glucose/kg of body weight.

lean C57BL/6 mice = assay: Body weight, food intake, nonfasting blood glucose, triglyceride in normal lean C57BL/6 mice (Example 11); conditions: for weight loss as compared to the vehicle control group: female C57BL/6 mice, day 2
Procedure: Test animals: Mice with normal diet were used in this study.
Administration of NT-4/5: NT-4/5 was produced as described in U.S. Pat. No. 6,184,360. The mice were divided into 5 groups of equivalent baseline body weight, food intake and nonfasting blood glucose level distribution (8 mice per group). Each group received 4 daily subcutaneous doses of vehicle, 1 mg/kg, 2 mg/kg, 5 mg/kg or 10 mg/kg of NT-4/5, respectively, from day 1 to day 4. Body weight and food intake were monitored on daily basis. The non-fasting blood glucose was measure as previously described once a week (day 1 and day 8).

[3] = DIO mice 12-16 weeks of age, not diabetic
[4] = DIO mice 22-24 weeks of age, overt diabetes
[5] = lean male mice, 1, 2, 5 and 10 mg/kg s.c. daily, dose dependent

B1: NT-4/5: mature human neurotrophin-4/5 (SEQ ID NO:1), obtained from Genentech or produced in E. coli (protein, listed as Homo sapiens)
chain: GVSETAPASRRGELAVCDAVSGWVTDRRTAVDLRGREVEVLGEVPAAGGSPLRQYFFETRCKADNAEEGGPGAGGGGCRGVDRRHWVSECKAKQSYVRALTADAQGRVGWRWIRIDTACVCTLLSRTGRA
Question: Which results are given for B1?
Answer: body weight as compared to vehicle (db/db mice [1]; 2, 5, 10 and 20 mg/kg): significantly decreased body weight; body weight (db/db mice [1]; NT-4/5 2 mg/kg, Day 1): 39.66; percentage change in body weight (db/db mice [1]; NT-4/5 2 mg/kg, Day 1): 101.83%; body weight (db/db mice [1]; NT-4/5 2 mg/kg, Day 3): 38.96; percentage change in body weight (db/db mice [1]; NT-4/5 2 mg/kg, Day 3): 98.27%; body weight (db/db mice [1]; NT-4/5 2 mg/kg, Day 5): 38.17; percentage change in body weight (db/db mice [1]; NT-4/5 2 mg/kg, Day 5): 96.24%; body weight (db/db mice [1]; NT-4/5 2 mg/kg, Day 7): 37.50; percentage change in body weight (db/db mice [1]; NT-4/5 2 mg/kg, Day 7): 94.57%; body weight (db/db mice [1]; NT-4/5 2 mg/kg, Day −1): 38.94; body weight (db/db mice [1]; NT-4/5 5 mg/kg, Day 1): 41.03; percentage change in body weight (db/db mice [1]; NT-4/5 5 mg/kg, Day 1): 101.51%; body weight (db/db mice [1]; NT-4/5 5 mg/kg, Day 3): 39.26; percentage change in body weight (db/db mice [1]; NT-4/5 5 mg/kg, Day 3): 95.71%; body weight (db/db mice [1]; NT-4/5 5 mg/kg, Day 5): 38.48; percentage change in body weight (db/db mice [1]; NT-4/5 5 mg/kg, Day 5): 93.79%; body weight (db/db mice [1]; NT-4/5 5 mg/kg, Day 7): 37.00; percentage change in body weight (db/db mice [1]; NT-4/5 5 mg/kg, Day 7): 90.15%; body weight (db/db mice [1]; NT-4/5 5 mg/kg, Day −1): 40.41; body weight (db/db mice [1]; NT-4/5 10 mg/kg, Day 1): 39.99; percentage change in body weight (db/db mice [1]; NT-4/5 10 mg/kg, Day 1): 101.07%; body weight (db/db mice [1]; NT-4/5 10 mg/kg, Day 3): 38.49; percentage change in body weight (db/db mice [1]; NT-4/5 10 mg/kg, Day 3): 96.28%; body weight (db/db mice [1]; NT-4/5 10 mg/kg, Day 5): 37.35; percentage change in body weight (db/db mice [1]; NT-4/5 10 mg/kg, Day 5): 93.43%; body weight (db/db mice [1]; NT-4/5 10 mg/kg, Day 7): 36.04; percentage change in body weight (db/db mice [1]; NT-4/5 10 mg/kg, Day 7): 90.14%; body weight (db/db mice [1]; NT-4/5 10 mg/kg, Day −1): 39.58; body weight (db/db mice [1]; NT-4/5 20 mg/kg, Day 1): 40.73; percentage change in body weight (db/db mice [1]; NT-4/5 20 mg/kg, Day 1): 100.31%; body weight (db/db mice [1]; NT-4/5 20 mg/kg, Day 3): 39.10; percentage change in body weight (db/db mice [1]; NT-4/5 20 mg/kg, Day 3): 96.01%; body weight (db/db mice [1]; NT-4/5 20 mg/kg, Day 5): 37.71; percentage change in body weight (db/db mice [1]; NT-4/5 20 mg/kg, Day 5): 92.60%; body weight (db/db mice [1]; NT-4/5 20 mg/kg, Day 7): 36.00; percentage change in body weight (db/db mice [1]; NT-4/5 20 mg/kg, Day 7): 88.38%; body weight (db/db mice [1]; NT-4/5 20 mg/kg, Day −1): 40.60; food intake as compared to vehicle (db/db mice [2]; 2, 5, 10 and 20 mg/kg): significantly decreased food intake; food intake (db/db mice [2]; Day 0, 2 mg/kg s.c. daily): 7.79 g; food intake (db/db mice [2]; Day 0, 5 mg/kg s.c. daily): 7.26 g; food intake (db/db mice [2]; Day 0, 10 mg/kg s.c. daily): 7.48 g; food intake (db/db mice [2]; Day 0, 20 mg/kg s.c. daily): 7.46 g; food intake (db/db mice [2]; Day 1, 2 mg/kg s.c. daily): 5.20 g; food intake (db/db mice [2]; Day 1, 5 mg/kg s.c. daily): 4.55 g; food intake (db/db mice [2]; Day 1, 10 mg/kg s.c. daily): 4.13 g; food intake (db/db mice [2]; Day 1, 20 mg/kg s.c. daily): 4.11 g; food intake (db/db mice [2]; Day 2, 2 mg/kg s.c. daily): 5.87 g; food intake (db/db mice [2]; Day 2, 5 mg/kg s.c. daily): 4.86 g; food intake (db/db mice [2]; Day 2, 10 mg/kg s.c. daily): 5.18 g; food intake (db/db mice [2]; Day 2, 20 mg/kg s.c. daily): 4.66 g; food intake (db/db mice [2]; Day 3, 2 mg/kg s.c. daily): 3.89 g; food intake (db/db mice [2]; Day 3, 5 mg/kg s.c. daily): 3.99 g; food intake (db/db mice [2]; Day 3, 10 mg/kg s.c. daily): 3.85 g; food intake (db/db mice [2]; Day 3, 20 mg/kg s.c. daily): 3.39 g; food intake (db/db mice [2]; Day 4, 2 mg/kg s.c. daily): 4.79 g; food intake (db/db mice [2]; Day 4, 5 mg/kg s.c. daily): 3.69 g; food intake (db/db mice [2]; Day 4, 10 mg/kg s.c. daily): 4.00 g; food intake (db/db mice [2]; Day 4, 20 mg/kg s.c. daily): 3.40 g; food intake (db/db mice [2]; Day 5, 2 mg/kg s.c. daily): 4.19 g; food intake (db/db mice [2]; Day 5, 5 mg/kg s.c. daily): 3.79 g; food intake (db/db mice [2]; Day 5, 10 mg/kg s.c. daily): 3.60 g; food intake (db/db mice [2]; Day 5, 20 mg/kg s.c. daily): 3.06 g; food intake (db/db mice [2]; Day 6, 2 mg/kg s.c. daily): 3.99 g; food intake (db/db mice [2]; Day 6, 5 mg/kg s.c. daily): 3.00 g; food intake (db/db mice [2]; Day 6, 10 mg/kg s.c. daily): 2.56 g; food intake (db/db mice [2]; Day 6, 20 mg/kg s.c. daily): 1.71 g; food intake (db/db mice [2]; Day 7, 2 mg/kg s.c. daily): 4.13 g; food intake (db/db mice [2]; Day 7, 5 mg/kg s.c. daily): 3.48 g; food intake (db/db mice [2]; Day 7, 10 mg/kg s.c. daily): 3.21 g; food intake (db/db mice [2]; Day 7, 20 mg/kg s.c. daily): 2.03 g; non-fasting glucose levels (DIO mice; [3]): did not affect; non-fasting triglyceride levels (DIO mice; [3]): did not affect; fasting glucose level (DIO mice; [4]): significantly reduced fasting glucose level; glucose tolerance (DIO mice; [4]): improved glucose tolerance; weight loss as compared to the vehicle control group (lean C57BL/6 mice; 5 mg/kg): about 8%; weight loss as compared to the vehicle control group (lean C57BL/6 mice; 10 mg/kg): about 11%; blood triglyceride (lean C57BL/6 mice; [5]): significantly reduced blood triglyceride; body weight (lean C57BL/6 mice; [5]): significantly reduced the body weight; food intake (lean C57BL/6 mice; lean male mice, 1, 5 and 10 mg/kg s.c. daily, dose dependent): significantly reduced food intake; nonfasting blood glucose (lean C57BL/6 mice; lean male mice, 2, 5 and 10 mg/kg s.c. daily, dose dependent): significantly reduced nonfasting blood glucose

Reference: patent publication US20090203610A1, “METHODS OF TREATING OBESITY OR DIABETES USING NT-4/5” (RINAT NEUROSCIENCE CORPORATION, priority 2004, published 2009)
